Source: US20110262445A1 (CEPHALON AUSTRALIA, published 2011)
Where two headings read alike, the source gives them in different places.

T1: human IL-23 (human, UniProt P29460 23-328; Q9NPF7 20-189)
T1 construct: Recombinant (Ebioscience); HIS-tagged in flow cytometry, biotinylated in some assays; also called hIL-23; rhIL-23
T1 sequence 1: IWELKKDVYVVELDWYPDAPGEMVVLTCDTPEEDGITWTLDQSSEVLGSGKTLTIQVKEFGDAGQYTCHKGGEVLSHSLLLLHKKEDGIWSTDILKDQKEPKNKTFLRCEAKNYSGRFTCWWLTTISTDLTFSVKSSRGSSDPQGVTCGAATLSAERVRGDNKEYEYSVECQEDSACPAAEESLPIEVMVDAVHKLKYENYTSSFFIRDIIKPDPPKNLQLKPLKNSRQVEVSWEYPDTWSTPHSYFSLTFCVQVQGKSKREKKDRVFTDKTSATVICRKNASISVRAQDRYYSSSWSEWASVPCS
T1 sequence 2: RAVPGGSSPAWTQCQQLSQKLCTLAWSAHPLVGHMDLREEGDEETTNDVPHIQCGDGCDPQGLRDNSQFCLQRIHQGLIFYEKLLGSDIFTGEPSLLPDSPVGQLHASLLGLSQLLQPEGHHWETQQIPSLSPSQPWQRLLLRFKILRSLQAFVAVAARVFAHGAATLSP

T2: human IL-12 (human, UniProt P29460 23-328; P29459 23-219)
T2 construct: Recombinant (Peprotech); FLAG-tagged IL-12 in the flow cytometry assays, biotinylated in the IL-12Rβ2 assay; also called hIL-12
T2 sequence 1: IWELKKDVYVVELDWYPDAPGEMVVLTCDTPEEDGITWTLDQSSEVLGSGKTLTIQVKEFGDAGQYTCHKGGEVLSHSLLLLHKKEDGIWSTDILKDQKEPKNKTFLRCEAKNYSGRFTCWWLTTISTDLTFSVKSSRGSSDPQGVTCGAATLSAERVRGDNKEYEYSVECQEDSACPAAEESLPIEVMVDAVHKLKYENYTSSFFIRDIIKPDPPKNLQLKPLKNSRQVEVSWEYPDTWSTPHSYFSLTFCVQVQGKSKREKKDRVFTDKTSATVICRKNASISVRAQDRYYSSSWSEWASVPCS
T2 sequence 2: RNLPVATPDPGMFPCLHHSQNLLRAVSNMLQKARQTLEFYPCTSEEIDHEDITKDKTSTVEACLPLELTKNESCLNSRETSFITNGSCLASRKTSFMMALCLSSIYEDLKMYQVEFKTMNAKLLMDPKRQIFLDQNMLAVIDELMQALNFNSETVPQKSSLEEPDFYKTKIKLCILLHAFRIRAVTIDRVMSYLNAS

B1: Antibody 201 (antibody, human IgG1, kappa, V domains shown)
VH: QVQLVQSGAEVKKPGASVKVSCKASGYTFTDYYLHWVRQAPGQGLEWMGWIDPENGDTESAPKFQGRVTMTTDTSTSTAYMELRSLRSDDTAVYYCAANKELRYFDVWGQGTMVTVSS
VL: EIVMTQSPATLSVSPGERATLSCRASQSISINLHWYQQKPGQAPRLLIYFASQSISGIPARFSGSGSGTEFTLTISSLQSEDFAVYYCQQSNSFPLTFGGGTKVEIKR
B2: Antibody 202 (antibody, human IgG1, kappa, V domains shown)
VH: QVQLVQSGAEVKKPGASVKVSCKASGYTLTDYYLHWVRQAPGQGLEWMGWIDPENGDTESAPKFQGRVTMTTDTSTSTAYMELRSLRSDDTAVYYCAANKELRYFDVWGQGTMVTVSS
VL: EIVMTQSPATLSVSPGERATLSCRASQSISINLHWYQQKPGQAPRLLIYFASQSISGIPARFSGSGSGTEFTLTISSLQSEDFAVYYCQQSNSFPLTFGGGTKVEIKR
notes: not the murine PMA202
B3: Antibody 203 (antibody, human IgG1, kappa, V domains shown)
VH: QVQLVQSGAEVKKPGASVKVSCKASGYTFTDYYLHWVRQAPGQGLEWMGWIDPENGDTEHAPKFQGRVTMTTDTSTSTAYMELRSLRSDDTAVYYCAANKELRYFDVWGQGTMVTVSS
VL: EIVMTQSPATLSVSPGERATLSCRASQSISINLHWYQQKPGQAPRLLIYFASQSISGIPARFSGSGSGTEFTLTISSLQSEDFAVYYCQQSNSFPLTFGGGTKVEIKR
B4: Antibody 204 (antibody, human IgG1, kappa, V domains shown)
VH: QVQLVQSGAEVEKPGASVKVSCKASGYTFTDYYLHWVRQAPGQGLEWMGWIDPENGDTEYAPKFQGGVTMTTDTSTSTAYMELRSLRSDDTAVYYCAANKELRYFDVWGQGTMVTVSS
VL: EIVMTQSPATLSVSPGERATLSCRASQSISINLHWYQQKPGQAPRLLIYFASQSISGIPARFSGSGSGTEFTLTISSLQSEDFAVYYCQQSNSFPLTFGGGTKVEIKR
notes: not the murine PMA204
B5: Antibody 175 (antibody, human IgG1, kappa, V domains shown)
VH: EVQLVQSGAEVKKPGATVKISCKASGYAFSDYYLHWVRQAPEKGLEWMGWIDPENGDTEYAPKFQGRVTITADTSTDTGYLELSSLRSEDTAVYYCAANKELRYFDVWGQGTLVTVSS
VL: DIQMTQSPSSVSASVGDRVTITCRASQSISINLHWYQQKPGKAPKLLIYFASQSISGVPSRFSGSGSGTDFSLTINSLQTEDFATYYCQQSNSFPLTFGGGTKVEIKR
B6: Antibody 179 (antibody, human IgG1, kappa)
heavy: not shown
light: DIQMTQSPSSVSASVGDRVTITCRASQSISINLHWYQQKPGKAPKLLIYFASQSISGVPSRFSGSGSGTDFSLTINSLQTEDFATYYCQQSNSFPLTFGGGTKVEIKRTVAAPSVFIFPPSDEQLKSGTASVVCLLNNFYPREAKVQWKVDNALQSGNSQESVTEQDSKDSTYSLSSTLTLSKADYEKHKVYACEVTHQGLSSPVTKSFNRGEC
B7: Antibody 5 (antibody, human IgG1, kappa, V domains shown)
VH: EVQLQQSGADLVRSGASIKLSCTASGFNIKDYYMHWVKQRPEQGLEWIGWIDPENGDTEYAPKFQGKATMTADTSSNTAYLQLSSLTSEDTAVYYCNAAKELRYFDVWGAGTTVTVSS
VL: DIVLTQSPATLSVTPGDSVSLSCRASQSISINLHWYQQKSHESPRLLIKFASQSISGIPSRFSGYGSGTDFTLSINSVETEDFGRYFCQQSNSWPLTFGAGTKLELKR
B8: Antibody 8 (antibody, human IgG1, kappa, V domains shown)
VH: EVQLQQSGADLVRSGASIKLSCTASGFNIKDYYMHWVKQRPEQGLEWIGWIDPENGDTEYAPKFQGKATMTADTSSNTAYLQLSSLTSEDTAVYYCNADKELRYFDVWGAGTTVTVSS
VL: DIVLTQSPATLSVTPGDSVSLSCRASQSISINLHWYQQKSHESPRLLIKFASQSISGIPSRFSGYGSGTDFTLSINSVETEDFGRYFCQQSNSWPLTFGAGTKLELKR
B9: Antibody 9 (antibody, human IgG1, kappa, V domains shown)
VH: EVQLQQSGADLVRSGASIKLSCTASGFNIKDYYMHWVKQRPEQGLEWIGWIDPENGDTEYAPKFQGKATMTADTSSNTAYLQLSSLTSEDTAVYYCNAEKELRYFDVWGAGTTVTVSS
VL: DIVLTQSPATLSVTPGDSVSLSCRASQSISINLHWYQQKSHESPRLLIKFASQSISGIPSRFSGYGSGTDFTLSINSVETEDFGRYFCQQSNSWPLTFGAGTKLELKR
B10: Antibody 10 (antibody, human IgG1, kappa, V domains shown)
VH: EVQLQQSGADLVRSGASIKLSCTASGFNIKDYYMHWVKQRPEQGLEWIGWIDPENGDTEYAPKFQGKATMTADTSSNTAYLQLSSLTSEDTAVYYCNAQKELRYFDVWGAGTTVTVSS
VL: DIVLTQSPATLSVTPGDSVSLSCRASQSISINLHWYQQKSHESPRLLIKFASQSISGIPSRFSGYGSGTDFTLSINSVETEDFGRYFCQQSNSWPLTFGAGTKLELKR
B11: Antibody 11 (antibody, human IgG1, kappa, V domains shown)
VH: EVQLQQSGADLVRSGASIKLSCTASGFNIKDYYMHWVKQRPEQGLEWIGWIDPENGDTEYAPKFQGKATMTADTSSNTAYLQLSSLTSEDTAVYYCNAGKELRYFDVWGAGTTVTVSS
VL: DIVLTQSPATLSVTPGDSVSLSCRASQSISINLHWYQQKSHESPRLLIKFASQSISGIPSRFSGYGSGTDFTLSINSVETEDFGRYFCQQSNSWPLTFGAGTKLELKR
B12: Antibody 191 (antibody, human IgG1, kappa, V domains shown)
VH: QVQLVQSGAEVKKPGASVKVSCKASGYTFTDYYLHWVRQAPGQGLEWMGWIDPENGDTEYAPKFQGRVTMTTDTSTSTAYMELRSLRSDDTAVYYCAANKELRYFDVWGQGTMVTVSS
VL: DIQMTQSPSSVSASVGDRVTITCRASQSISINLHWYQQKPGKAPKLLIYFASQSISGVPSRFSGSGSGTDFSLTINSLQTEDFATYYCQQSNSFPLTFGGGTKVEIKR
B13: Antibody 196 (antibody, human IgG1, kappa, V domains shown)
VH: QVQLVQSGAEVEKPGASVKVSCKASGYTFTDYYLHWVRQAPGQGLEWMGWIDPENGDTEYAPKFQGGVTMTTDTSTSTAYMELRSLRSDDTAVYYCAANKELRYFDVWGQGTMVTVSS
VL: DIQMTQSPSSVSASVGDRVTITCRASQSISINLHWYQQKPGKAPKLLIYFASQSISGVPSRFSGSGSGTDFSLTINSLQTEDFATYYCQQSNSFPLTFGGGTKVEIKR
B14: Antibody 197 (antibody, human IgG1, kappa, V domains shown)
VH: QVQLVQSGAEVKKPGASVKVSCKASGYTFTDYYLHWVRQAPGRGLEWMGWIDPENGDTEYAPKFQGRVTMTTDTSTSTAYMELRSLRSDDTAVYYCAANKELRYFDVWGQGTMVTVSS
VL: DIQMTQSPSSVSASVGDRVTITCRASQSISINLHWYQQKPGKAPKLLIYFASQSISGVPSRFSGSGSGTDFSLTINSLQTEDFATYYCQQSNSFPLTFGGGTKVEIKR

Assays:
human IL-23 [1] = biological target: T1, human IL-23; test: ELISA, coated IL-23
Experimental: (§1) IL-12 (Peprotech), IL-23 (Ebioscience™), IL-12p40 (Ebioscience™) or IL-12p80 (Peprotech), was diluted to 1 μg/mL in carbonate coating buffer ([…] pH 9.6) and coated onto a 96 well plate (Nunc™, Maxisorp™) overnight at 4° C. The plate was then washed three times with wash buffer (0.01M PBS pH 7.2, 0.05% Tween-20) and then three times with 0.01M PBS pH 7.2. The wells were then blocked by adding 200 μl of blocking buffer (1% w/v BSA in 0.01 M PBS pH 7.2) to each well and incubating the plate at 25° C. for 1 hour. The antibody was diluted in antibody diluent (1% w/v BSA, 0.05% Tween-20 in 0.01M PBS pH 7.2) sufficient to generate a titration curve. The wells were incubated with the antibody for 1 hour at 25° C. The plate was then washed as previously described. Goat anti-human immunoglobulin G (H+L) antibody HRP conjugate (Zymed®) at 1:2000 in antibody diluent was used to detect bound primary antibody. Goat anti-murine immunoglobulin antibody HRP conjugate (Dako) at 1:2000 in antibody diluent was used to detect bound murine antibody. After incubation at 25° C. for 1 hour the plate was washed again as previously described. TMB substrate solution (Zymed®) was added to each well and the colour allowed to develop; the reaction was terminated by adding 1M HCl to the wells. The absorbance of each well was determined at 450 nm (ref. 620 nm).

human IL-12 [2] = biological target: T2, human IL-12; test: ELISA, coated IL-12
Experimental: as §1

human IL-23 [3] = biological target: T1, human IL-23; test: ELISA, coated IL-23; remark: listed apart in the source
Experimental: This cysteine at the start of CDR3 could be oxidized, causing heterogeneity in any resulting antibody product. It could also form complexes by disulphide bond formation. Therefore, each of the other 18 (the exceptions being the original Cys and Trp) amino acids was substituted in this position using gene synthesis, and the antibodies were expressed transiently (Antibodies 5, 6, 7, 8, 9, 10, 11, 12, 13, 14, 15, 16, 17, 18, 19, 20, 21, 22). An ELISA was performed on these antibodies (FIG. 9). Some of the antibodies retained binding activity for both IL-12 and IL-23, others only for one cytokine or the other, while others minimally bound to either cytokine.
as §1

human IL-12 [4] = biological target: T2, human IL-12; test: ELISA, coated IL-12; remark: listed apart in the source
Summary of the method: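 Cytokine at 1 μg/mL in carbonate buffer pH 9.6 was coated overnight at 4° C onto Maxisorp plates and blocked with 1% BSA in PBS for 1 hour at 25° C. Antibody titrations were bound for 1 hour at 25° C, then detected with goat anti-human IgG or anti-murine immunoglobulin HRP (1:2000, 1 hour). TMB was developed and stopped with 1M HCl. The binding result is absorbance at 450 nm (reference 620 nm).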

Binder	binding result (human IL-23 [1])	binding result (human IL-12 [2])	binding result (human IL-23 [3])	binding result (human IL-12 [4])
B1	binds	binds	–	–
B2	binds	binds	–	–
B3	binds	binds	–	–
B4	binds	binds	–	–
B5	binds	binds	–	–
B6	binds	binds	–	–
B7	–	–	binds	binds
B8	–	–	binds	binds
B9	–	–	binds	binds
B10	–	–	binds	binds
B11	–	–	binds	binds
B12	binds	binds	–	–
B13	binds	binds	–	–
B14	binds	binds	–	–
